Results: the nanobody polyreactivity screen of Harvey et al. (2022)

assay: yeast display, Sf9 membrane polyspecificity reagent, FACS + sequencing; frameworks hold sequencing errors
How it was run: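 Nanobodies from a synthetic yeast display library (Saccharomyces cerevisiae BJ5465), induced 36–48 hours with galactose, were stained 1 hour at 4 °C with 10% biotinylated, detergent-solubilized Sf9 membrane reagent, enriched on streptavidin microbeads, then FACS-sorted. Anti-HA (expression) and streptavidin (reagent binding) fluorescence set low and high (top ~1%) gates. Polyreactivity labels come from the gate of origin. Genes were colony-PCR amplified, MiSeq 2 × 250 sequenced and filtered by CDR length.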

Sequence | polyreactivity (PSR sort gate)
QVQLVESGGGLVQAGGSLRLSCAASGRIFSNNAIGWYRQAPGKARELVAAHSWNGGRTYYADSVKGRFTISRDNGKNTVYLQMNSLQPEDPAVYYCTKHDAQTRSFASTWYVYWGQGTQVTVSS | high polyreactivity
QVQLVESGGGLVQAGGSLRLSCAASGRIFSNNAMGWYRQAPGKERELVAAITNSGGSTYYADSVKGRFTISRDNAKNTVYLQMNSLKPEDTAVYYCAADHLSVPYDVYWTYSYWGQGTQVTVSS | low polyreactivity
QVQLVESGGGLVQAGGSLRLSCAASGRIFSNNAMGWYRQAPGKERELVASIDSGDSTTYADSVKGRFTISRDNAKNTVYLQMNSLKPEDTAVYYCNAGPAEADYDYWGQGTQVTVSS | high polyreactivity
QVQLVESGGGLVQAGGSLRLSCAASGRIFSNYAMGWYRQAPGKERELVAAITRSGGSTYYADSVKGRFTISRDNAKNTVYLQMNSLKPEDTAVYYCNTAYRRRYTYDYWGQGTQVTVSS | high polyreactivity
QVQLVESGGGLVQAGGSLRLSCAASGRIFSPNAMGWYRQAPGKERELVAVSSWRGVSTYFADSVKGRFTISRDNAKNTVYLQMNSLKPEDTAVYYCAVDNKSVYYWRQYYYWGQGTQVTVSS | high polyreactivity
QVQLVESGGGLVQAGGSLRLSCAASGRIFSPYAMGWYRQAPGKERELVAAISYDDGITYYADSVKGRFTISRDNAKNTVYLQMNCLKPEDTAVYYCAADSVTRPAGDYWGQGTQVTVSS | low polyreactivity
QVQLVESGGGLVQAGGSLRLSCAASGRIFSPYAMGWYRQAPGKERELVAAITWSGTSTSYADSVKGRFTISRDNAKNTVYLQMNRLKPEDTAVYYCNAVYRSWDRYTFYWYVSNDYWGQGTQVTVSS | low polyreactivity
QVQLVESGGGLVQAGGSLRLSCAASGRIFSPYAMGWYRQAPGKERELVASIRGSGGSTYYADSVKGPFTISRDNAKNTVYLQMNRLKPEDTAVYYCNARNNYRFLSFGYWGQGTQVTVSS | high polyreactivity
QVQLVESGGGLVQAGGSLRLSCAASGRIFSQNAMGWYRQAPGKERELVAAISGGSTNYADSVKGRFTISRDNAKNTVYLQMNSLKPEDTAVYYCAVRWYFYHRSVEYDYWGQGTQVTVSS | low polyreactivity
QVQLVESGGGLVQAGGSLRLSCAASGRIFSQYAMGWYRQAPGKARELVAAITKSGGSTYYADSVKGRFTISRDKAKNTVYLQMNSRKPEETAVYYCAKLRSSRDYDYWGQGTQVTVSS | high polyreactivity
QVQLVESGGGLVQAGGSLRLSCAASGRIFSQYAMGWYRQAPGKERELVAAISYDDGITYYADSVKGRFTISRDNAKNTVYLQMNSLKPEDTAVYYCNADGSRRYNYWGQGTQVTVSS | low polyreactivity
QVQLVESGGGLVQAGGSLRLSCAASGRIFSRNALGWYRQAPGKERELVAAISWRGGRTYYAVSVKGRFAISRDNAKNTVYLQMNSLKPEDTAVYYCNAVSFGRARHGGPVYGYDYWGQGTQVTVSS | high polyreactivity
QVQLVESGGGLVQAGGSLRLSCAASGRIFSRNAMGWYRQAPGKERELVAAITWRGGSTYYADSVKGRFTISRDNAKNTVYLQMNSLKPEDTAVYYCNRDYRQYGYAYSGRYYWGQGTQVTVSS | high polyreactivity
QVQLVESGGGLVQAGGSLRLSCAASGRIFSRNTMGWYRQAPGKERELVAAISWRGGSTYYADSVKGRFTISRDNAKNTVYLQMNSLKPEDTAVFYCAAVVRSPAYDYWGQGTQVSVSS | high polyreactivity
QVQLVESGGGLVQAGGSLRLSCAASGRIFSRYAMGGYRQAPGKERELVAAIRYSGGRTYYADSVKGRFTISRDNAKNTVYLQMNSLIPEDTEVYYCAADGQWYYAPFRGGDYENDYWGQGTQVTVSS | low polyreactivity
QVQLVESGGGLVQAGGSLRLSCAASGRIFSRYAMGWYRQAPGKERELVAAITGRGGSTYYADSVKGRFTISRDNAKNTVYLQMNSLKPVDTAVYYCAVANRVTPLFLRYDYWGQGTQVTVSS | high polyreactivity
QVQLVESGGGLVQAGGSLRLSCAASGRIFSRYAMGWYRQAPGKERELVAAITWSVGSTYYADSVKGRFTISRDNAKNTVYLQMNSLKPEDTAVSYCAKLVRYYKPGYDYGGQGTQVTVSS | low polyreactivity
QVQLVESGGGLVQAGGSLRLSCAASGRIFSRYAMGWYRQAPGKERELVAAITYSGGSTYYADSVKGRFTISRDNAKNTVYLQMNSLKPEDTAVYYCNAATYGGRYYYWGQGTQVTVSS | high polyreactivity
QVQLVESGGGLVQAGGSLRLSCAASGRIFSRYVMGWYRQAPGKERELVAAITSSGGRTYYADSVKGRFTISRDNAKNTVYLQMNSLNPEDTAVYYCNNAPWWRTSSDYEYWGQGTQVTVSS | high polyreactivity
QVQLVESGGGLVQAGGSLRLSCAASGRIFSSNAMGWYRQAPGKEWELVAAITRGGSTNYADSVKGRFTISRDNAKNTDYLQMNSLKPEDTAVYYCNVDYYVFNHQGHLNYDYWGQGTQVTVSS | high polyreactivity
QVQLVESGGGLVQAGGSLRLSCAASGRIFSSNGMGWYRQAPGKERELVAAIRTDGGSTYYADSVKGRFTISRDNAKNTVYLQMNSLKPEDTAVYYCNAQGAYTDVFDVYQRQPDDYWGQGTQVTVSS | low polyreactivity

Sequence | polyreactivity (PSR sort gate)
QVQLVESGGGLVQAGGSLRLSCAASGRIFSSNVMGWYRQAPGKERELVAAITSGGSTYYADSVKGRFTISRDNAKNTVYLQMNSLKPEDTAVYYCAASYWVLRYRYDYWGQGTQVTVSS | high polyreactivity
QVQLVESGGGLVQAGGSLRLSCAASGRIFSSYAMGWSRPAPGKERELVAAISSSGGNTYYADSVKGRFTISRDNAKNTVYLQMNSLKPEDTAVYYCNTRWVHRDWYDYWGQGTQVTVSS | high polyreactivity
QVQLVESGGGLVQAGGSLRLSCAASGRIFSSYAMGWYRKAPGKERELVAAISGSGGRTYYADSVKGRFTISRDNAKNTVYLQMNSLKPEDTAVYYCNARRRSPYSTGVAYDYWGQVTQVTVSS | high polyreactivity
QVQLVESGGGLVQAGGSLRLSCAASGRIFSSYAMGWYRQAPGKERELVAAISRSGARTYYADSVKGRFTISRDNAKNTVYLQMNSLKPEDTAVYYCAAVTVAGYDYWGQGTQVTVSS | high polyreactivity
QVQLVESGGGLVQAGGSLRLSCAASGRIFSSYDMGWYRQAPGKERELVAAISYSGGNTYYADSVKGRFTISRDTAKNTVYLQMNSLKPEDTAVYYCAARLPGYRYYYWGQGTQVTVSS | high polyreactivity
QVQLVESGGGLVQAGGSLRLSCAASGRIFSSYVMGWYRQAPGKERELVAAIRWSGGSTYYADSVKGRFTISRDNAKNTVYLQMNSLKPEDTAVYYCAAVVYRYYATGYGYWGQGTQVTVSS | high polyreactivity
QVQLVESGGGLVQAGGSLRLSCAASGRIFSTYAMGWYRQAPGKERELVAAITNSAGSTYYADSVKGLFTISRDNAKNTVYLQMNSLKPEDTAVYYCATGWSRISYGFDYWGQGTQVTVSS | low polyreactivity
QVQLVESGGGLVQAGGSLRLSCAASGRIFSTYVMGWYRQAPGKERELVAAITWSGGSTYYADSVKGRFTISRDNAKNTVYLQMNSLKPEDTAVYYCAADEIYRYGYWGQGTLVTVSS | high polyreactivity
QVQLVESGGGLVQAGGSLRLSCAASGRIFSVYAMGWYRQAPGKERELVAAITRVGSTNYADSVKGRFTISRDNAKNTVFLLMNSLKQEDTAVYYCARTYSTRGYYYWGQGTQVTVSS | high polyreactivity
QVQLVESGGGLVQAGGSLRLSCAASGRIFSVYAMGWYRQAPGKERELVAAITRVGSTNYADSVKGRFTISRDNAKNTVYLQMNSLKPEDTAVYYCAAVARTVPSYSYNYWGQGTQVTVSS | high polyreactivity
QVQLVESGGGLVQAGGSLRLSCAASGRIFSVYAMGWYRQAPGKERELVASIRSRGSSTYYADSVKGRFTISRDNAKNTVYLQMNSLKPEDTAVYYCAVDVLTVGQSYDHWGQGTQVTVSS | high polyreactivity
QVQLVESGGGLVQAGGSLRLSCAASGRIFSVYDMGWYRQAPGKERELVAAIDTSDGSTNYADSVKGRFTISRDNAKNTVYLQMNSLKPEDTAVYYCNATDSYVPFDYWGQGTQVTVSS | low polyreactivity
QVQLVESGGGLVQAGGSLRLSCAASGRIFSWYAMGWYRQAPGKERELVAAISWRGGSTYYADSVKGRFTISRDNAKNTVYLQMNSLKPEDTAVYYCIGGPGGYDYWGHGTQVTVSS | low polyreactivity
QVQLVESGGGLVQAGGSLRLSCAASGRIFSYAMGWYRQAPGKERELVAAINWSGDSTYYADSVKGRFTISRDNAKNTVYLQMNSLKPEDTAVYYCNAVSAYWGAYGYWGQGTQVTVSS | high polyreactivity
QVQLVESGGGLVQAGGSLRLSCAASGRIFSYNAMGSDRQAPGKERELVADISSGGSTYYADSVKGRFTISRDNAKNSVYLQMNSLKPEDSAVYYCNADYYAFPWTNEYWGQGTQVTVSS | high polyreactivity
QVQLVESGGGLVQAGGSLRLSCAASGRIFSYNAMGWYRQAPGKERELVAAITFSGGGTYYADSVKGRFTISRDNAKNTVYLQMNSLKPEDTAVYYCAADVPPKYRHRYNLYDYWGQGTQVTVSS | low polyreactivity
QVQLVESGGGLVQAGGSLRLSCAASGRIFSYYAMGWYRPAPGKERELVAAISSSGGSTYYADSVKGRFTISRDNAKNTVYLQMNSLKPEDTAVYYCRVYTRGEYYSWGQGTQVTVSS | high polyreactivity
QVQLVESGGGLVQAGGSLRLSCAASGRIFSYYAMGWYRQAPGKERELVAAIRWSGGRTYYADSVKGRFTISRDNAKNTVYLQMNSLKPEDTAVYYCAAEGAYRLAYDYWGQGTQVTVSS | high polyreactivity
QVQLVESGGGLVQAGGSLRLSCAASGRIFSYYAMGWYRQAPGKERELVATIDRSGDPTSYADSVKGRFTISRDNAMNTVYLKMNSLKPEDTAVYYCAATSKRARYDSWGQGTQVTVSS | high polyreactivity
QVQLVESGGGLVQAGGSLRLSCAASGRIFSYYAMGWYRQAPGKEREMVAAISGNGGSTYYADSVKGRFTISRDNAKNTVYLQMNSLKPEDTAVYYCAADWWSSDWAYLYPYSYDYWGQGTQVTVSS | low polyreactivity
